Data published in patent US20100227824A1 (SYMTHERA CANADA, published 2010).
Ends that are not written are not given here.

T1: Mig (CXCL9) (UniProt Q07325 23-125)
T1 construct: Bought chemokine
T1 sequence (looked up): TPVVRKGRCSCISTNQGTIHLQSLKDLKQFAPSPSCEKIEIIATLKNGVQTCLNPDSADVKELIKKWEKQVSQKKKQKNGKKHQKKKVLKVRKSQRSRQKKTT

T2: GRO-β (CXCL2) (UniProt P19875 35-107)
T2 construct: Bought chemokine
T2 sequence (looked up): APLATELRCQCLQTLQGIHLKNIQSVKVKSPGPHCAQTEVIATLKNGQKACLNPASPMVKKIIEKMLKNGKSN

T3: Eotaxin 2 (CCL24) (UniProt O00175 27-104, limits assumed)
T3 construct: Bought chemokine
T3 sequence (looked up): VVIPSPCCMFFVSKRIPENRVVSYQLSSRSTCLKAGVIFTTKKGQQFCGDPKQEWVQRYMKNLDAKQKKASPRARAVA

T4: TECK (CCL25) (UniProt O15444 24-150)
T4 construct: Bought chemokine
T4 sequence (looked up): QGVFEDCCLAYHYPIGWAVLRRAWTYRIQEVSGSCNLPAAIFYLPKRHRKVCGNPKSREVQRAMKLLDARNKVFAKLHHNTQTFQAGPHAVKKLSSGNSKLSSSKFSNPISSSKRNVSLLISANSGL

T5: Lymphotactin (XCL-1) (UniProt P47992 23-114, limits assumed)
T5 construct: Bought chemokine
T5 sequence (looked up): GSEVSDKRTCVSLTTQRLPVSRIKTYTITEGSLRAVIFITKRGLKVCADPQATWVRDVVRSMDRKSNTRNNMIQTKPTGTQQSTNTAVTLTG

T6: IP-10 (CXCL10) (UniProt P02778 22-98)
T6 construct: Bought chemokine
T6 sequence (looked up): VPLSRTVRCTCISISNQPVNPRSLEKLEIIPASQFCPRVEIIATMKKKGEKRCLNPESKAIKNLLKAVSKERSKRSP

T7: Exodus-2 (CCL21) (UniProt O00585 24-134)
T7 construct: Bought chemokine
T7 sequence (looked up): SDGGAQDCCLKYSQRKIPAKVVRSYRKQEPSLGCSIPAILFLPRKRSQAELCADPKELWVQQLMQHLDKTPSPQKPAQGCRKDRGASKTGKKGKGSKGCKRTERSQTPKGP

T8: MCP-2 (CCL8) (UniProt P80075 24-99)
T8 construct: Bought chemokine
T8 sequence (looked up): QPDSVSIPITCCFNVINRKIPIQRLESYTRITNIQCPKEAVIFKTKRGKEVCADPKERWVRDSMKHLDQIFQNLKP

T9: I-TAC (CXCL11) (UniProt O14625 22-94)
T9 construct: Bought chemokine; also called I-TACK
T9 sequence (looked up): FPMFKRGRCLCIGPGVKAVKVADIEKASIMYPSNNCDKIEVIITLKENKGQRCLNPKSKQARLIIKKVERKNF

T10: Eotaxin 3 (CCL26) (UniProt Q9Y258 24-94)
T10 construct: Bought chemokine
T10 sequence (looked up): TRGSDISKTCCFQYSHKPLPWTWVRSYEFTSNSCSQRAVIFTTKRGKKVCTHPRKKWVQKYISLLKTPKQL

T11: I-309 (CCL1) (UniProt P22362 23-96, limits assumed)
T11 construct: Bought chemokine
T11 sequence (looked up): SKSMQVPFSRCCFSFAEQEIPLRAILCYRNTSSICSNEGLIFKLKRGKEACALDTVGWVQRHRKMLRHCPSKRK

T12: RANTES (CCL5) (UniProt P13501 24-91)
T12 construct: Bought chemokine
T12 sequence (looked up): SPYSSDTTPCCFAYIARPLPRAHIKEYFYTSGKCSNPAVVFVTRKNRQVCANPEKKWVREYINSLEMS

T13: BCA-1 (CXCL13) (UniProt O43927 23-109)
T13 construct: Bought chemokine
T13 sequence (looked up): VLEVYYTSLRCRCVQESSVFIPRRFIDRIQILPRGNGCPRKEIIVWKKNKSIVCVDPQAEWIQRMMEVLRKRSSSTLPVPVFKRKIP


The binders below were run against T14, Eotaxin (CCL11) (UniProt P51671 24-97) (assay: micro-array, phage-presented peptide on printed CK).
T14 construct: Bought chemokine
T14 sequence (P51671 24-97 limits assumed): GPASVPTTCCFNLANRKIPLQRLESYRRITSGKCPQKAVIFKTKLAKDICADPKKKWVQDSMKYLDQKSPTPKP
Experimental: (§1) (1) Printing: Chemokine (CK) solution (in water) was serially diluted with Print Reagent (GenTel BioSurfaces USA) to final concentrations of 50 μg and 25 μg/ml. BSA/BSA-Biotin control solutions (in water) were diluted with Print Reagent to 100 μg/ml. Amplified stock of M13 phage control (M13KEgIII Cloning Vector, New England Biolabs, Cat.No.E8101S) was stored in Tris Buffered Saline (TBS; pH7.5, 4° C.) and diluted with Print Reagent to the working titre (10^8 pfu/μl). An automated spotting robot (16 pin print tool, 0.4mm head; BioRobotics, UK) was used to print the CK/BSA control/M13 control, 5 repeats per sample (CK 25 μg/ml and 50 μg/ml; BSA 100 μg/ml; M13 20 μl), on PATH Protein Microarray Slides (GenTel, Prod.No.2-1005/-1025) at […], and 50-70% relative humidity. Printed micro-array slides were stored at Room Temperature (RT) or 4° C. for at least 24 h before use.
(§2) (2) Blocking: Block Buffer (500 μl/partition; PATHblock, GenTel, Prod.No.2-1014) was applied to the slide for 1 hour at room temp (RT). After removal of Block Buffer, the slide was air dried for 25 minutes;
(§3) (11) Analysis: Quantitative analysis of micro-array was performed by the SpotReader program of Niles Scientific (USA) and presented as Relative Fluorescence (RF) as a function of CK concentration. Micro-array readout (Cy3 fluorescence) was quantified to determine the relative binding affinities of a CBP for the CKs and by inference, the specificity of the CBP for binding to a CK.
DRYLNIVHAT [Phage-Presented Peptide 18 (Ph-p18)]: binds.
TKCQKE [Phage-Presented Peptide 20 (Ph-p20)]: binds.
WVFGNAACK [Phage-Presented Peptide 8.7 (Ph-p8.7)]: binds.
HYTCSSHFP (also: displayed on M13 phage, fusion not given here) [Phage-Presented Peptide 17 (Ph-p17)]: binds.
TTFFDYDYG [Phage-Presented Peptide 11 (Ph-p11)]: binds.

These binders were tested against T1, Mig (CXCL9) (assay: micro-array, phage-presented peptide on printed CK).
Experimental: as §1, §2, §3
DRYLNIVHAT [Phage-Presented Peptide 18 (Ph-p18)] was tested, and the “Relative Fluorescence Units (RFU)” value was > 9000 RFU.
TKCQKE [Phage-Presented Peptide 20 (Ph-p20)]: binds.
WVFGNAACK [Phage-Presented Peptide 8.7 (Ph-p8.7)]: binds.
HYTCSSHFP (also: displayed on M13 phage, fusion not given here) [Phage-Presented Peptide 17 (Ph-p17)]: binds.
TTFFDYDYG [Phage-Presented Peptide 11 (Ph-p11)]: binds.

These binders were tested against T2, GRO-β (CXCL2) (assay: micro-array, phage-presented peptide on printed CK).
Experimental: as §1, §2, §3
DRYLNIVHAT [Phage-Presented Peptide 18 (Ph-p18)]: binds.
TKCQKE [Phage-Presented Peptide 20 (Ph-p20)]: binds.
HYTCSSHFP (also: displayed on M13 phage, fusion not given here) [Phage-Presented Peptide 17 (Ph-p17)]: binds.
TTFFDYDYG [Phage-Presented Peptide 11 (Ph-p11)]: binds.

What follows are binders tested against T15, MCP-1 (CCL2) (UniProt P13500 24-99) (assay: micro-array, phage-presented peptide on printed CK).
T15 construct: Bought chemokine
T15 sequence (P13500 24-99 limits assumed): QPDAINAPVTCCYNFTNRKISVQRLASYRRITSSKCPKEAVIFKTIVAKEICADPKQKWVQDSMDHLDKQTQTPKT
Experimental: as §1, §2, §3
DRYLNIVHAT [Phage-Presented Peptide 18 (Ph-p18)]: binds.
TKCQKE [Phage-Presented Peptide 20 (Ph-p20)] was tested, and the “Relative Fluorescence Units (RFU)” value was > 15000 RFU.
HYTCSSHFP (also: displayed on M13 phage, fusion not given here) [Phage-Presented Peptide 17 (Ph-p17)]: binds.
TTFFDYDYG [Phage-Presented Peptide 11 (Ph-p11)] was tested, and the “Relative Fluorescence Units (RFU)” value was > 600 RFU.

Each binder was assayed against T3, Eotaxin 2 (CCL24) (assay: micro-array, phage-presented peptide on printed CK).
Experimental: as §1, §2, §3
DRYLNIVHAT [Phage-Presented Peptide 18 (Ph-p18)]: binds.

These binders were tested against T4, TECK (CCL25) (assay: micro-array, phage-presented peptide on printed CK).
Experimental: as §1, §2, §3
DRYLNIVHAT [Phage-Presented Peptide 18 (Ph-p18)]: binds.
TKCQKE [Phage-Presented Peptide 20 (Ph-p20)]: binds.
WVFGNAACK [Phage-Presented Peptide 8.7 (Ph-p8.7)]: binds.
HYTCSSHFP (also: displayed on M13 phage, fusion not given here) [Phage-Presented Peptide 17 (Ph-p17)]: binds.
TTFFDYDYG [Phage-Presented Peptide 11 (Ph-p11)]: binds.

The binders below were run against T5, Lymphotactin (XCL-1) (assay: micro-array, phage-presented peptide on printed CK).
Experimental: as §1, §2, §3
DRYLNIVHAT [Phage-Presented Peptide 18 (Ph-p18)]: binds.
TKCQKE [Phage-Presented Peptide 20 (Ph-p20)]: binds.
WVFGNAACK [Phage-Presented Peptide 8.7 (Ph-p8.7)]: binds.
HYTCSSHFP (also: displayed on M13 phage, fusion not given here) [Phage-Presented Peptide 17 (Ph-p17)]: binds.
TTFFDYDYG [Phage-Presented Peptide 11 (Ph-p11)]: binds.

The binders below were run against T6, IP-10 (CXCL10) (assay: micro-array, phage-presented peptide on printed CK).
Experimental: as §1, §2, §3
TKCQKE [Phage-Presented Peptide 20 (Ph-p20)]: binds.
WVFGNAACK [Phage-Presented Peptide 8.7 (Ph-p8.7)]: binds.

What follows are binders tested against T7, Exodus-2 (CCL21) (assay: micro-array, phage-presented peptide on printed CK).
Experimental: as §1, §2, §3
TKCQKE [Phage-Presented Peptide 20 (Ph-p20)]: binds.

What follows are binders tested against T8, MCP-2 (CCL8) (assay: micro-array, phage-presented peptide on printed CK).
Experimental: as §1, §2, §3
DRYLNIVHAT [Phage-Presented Peptide 18 (Ph-p18)]: binds.
TKCQKE [Phage-Presented Peptide 20 (Ph-p20)] was tested, and the “Relative Fluorescence Units (RFU)” value was > 15000 RFU.
For WVFGNAACK [Phage-Presented Peptide 8.7 (Ph-p8.7)], the “Relative Fluorescence Units (RFU)” value was > 15000 RFU.
HYTCSSHFP (also: displayed on M13 phage, fusion not given here) [Phage-Presented Peptide 17 (Ph-p17)] was tested, and the “Relative Fluorescence Units (RFU)” value was > 600 RFU.
TTFFDYDYG [Phage-Presented Peptide 11 (Ph-p11)] was tested, and the “Relative Fluorescence Units (RFU)” value was > 600 RFU.

The binders below were run against T9, I-TAC (CXCL11) (assay: micro-array, phage-presented peptide on printed CK).
Experimental: as §1, §2, §3
For DRYLNIVHAT [Phage-Presented Peptide 18 (Ph-p18)], the “Relative Fluorescence Units (RFU)” value was > 9000 RFU.
WVFGNAACK [Phage-Presented Peptide 8.7 (Ph-p8.7)]: binds.
HYTCSSHFP (also: displayed on M13 phage, fusion not given here) [Phage-Presented Peptide 17 (Ph-p17)]: binds.

Each binder was assayed against T16, MCP-4 (CCL13) (UniProt Q99616 24-98) (assay: micro-array, phage-presented peptide on printed CK).
T16 construct: Bought chemokine
T16 sequence (Q99616 24-98 limits assumed): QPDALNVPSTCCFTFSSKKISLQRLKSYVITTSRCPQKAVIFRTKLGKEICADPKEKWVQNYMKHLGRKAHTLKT
Experimental: as §1, §2, §3
DRYLNIVHAT [Phage-Presented Peptide 18 (Ph-p18)]: binds.
In the case of TKCQKE [Phage-Presented Peptide 20 (Ph-p20)], the “Relative Fluorescence Units (RFU)” value is reported as > 15000 RFU.
With WVFGNAACK [Phage-Presented Peptide 8.7 (Ph-p8.7)] the “Relative Fluorescence Units (RFU)” value was > 15000 RFU.
HYTCSSHFP (also: displayed on M13 phage, fusion not given here) [Phage-Presented Peptide 17 (Ph-p17)]: binds.
For TTFFDYDYG [Phage-Presented Peptide 11 (Ph-p11)], the “Relative Fluorescence Units (RFU)” value was > 600 RFU.

Each binder was assayed against T10, Eotaxin 3 (CCL26) (assay: micro-array, phage-presented peptide on printed CK).
Experimental: as §1, §2, §3
DRYLNIVHAT [Phage-Presented Peptide 18 (Ph-p18)]: binds.
TKCQKE [Phage-Presented Peptide 20 (Ph-p20)]: binds.
WVFGNAACK [Phage-Presented Peptide 8.7 (Ph-p8.7)]: binds.
HYTCSSHFP (also: displayed on M13 phage, fusion not given here) [Phage-Presented Peptide 17 (Ph-p17)]: binds.
TTFFDYDYG [Phage-Presented Peptide 11 (Ph-p11)]: binds.

These binders were tested against T11, I-309 (CCL1) (assay: micro-array, phage-presented peptide on printed CK).
Experimental: as §1, §2, §3
WVFGNAACK [Phage-Presented Peptide 8.7 (Ph-p8.7)]: binds.

Each binder was assayed against T12, RANTES (CCL5) (assay: micro-array, phage-presented peptide on printed CK).
Experimental: as §1, §2, §3
DRYLNIVHAT [Phage-Presented Peptide 18 (Ph-p18)]: binds.
TKCQKE [Phage-Presented Peptide 20 (Ph-p20)]: binds.
HYTCSSHFP (also: displayed on M13 phage, fusion not given here) [Phage-Presented Peptide 17 (Ph-p17)] was tested, and the “Relative Fluorescence Units (RFU)” value was > 600 RFU.
TTFFDYDYG [Phage-Presented Peptide 11 (Ph-p11)]: binds.

Each binder was assayed against T17, SDF-1β (CXCL12) (UniProt P48061 22-93) (assay: micro-array, phage-presented peptide on printed CK).
T17 construct: Beta isoform of CXCL12; also called SDFβ
T17 sequence (P48061 22-93 limits assumed): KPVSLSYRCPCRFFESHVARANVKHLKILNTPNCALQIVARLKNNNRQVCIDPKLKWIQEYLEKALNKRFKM
Experimental: as §1, §2, §3
WVFGNAACK [Phage-Presented Peptide 8.7 (Ph-p8.7)]: binds.

What follows are binders tested against T13, BCA-1 (CXCL13) (assay: micro-array, phage-presented peptide on printed CK).
Experimental: as §1, §2, §3
DRYLNIVHAT [Phage-Presented Peptide 18 (Ph-p18)]: binds.
TKCQKE [Phage-Presented Peptide 20 (Ph-p20)]: binds.
WVFGNAACK [Phage-Presented Peptide 8.7 (Ph-p8.7)]: binds.
